Measurements: PMC6891851 (ACS Central Science, 2019)
Square brackets hold non-standard residues; d marks the D form.

Molecular target: the molecule itself
Test: hydrogelation with CD, TEM and rheology

B1: AcVES3 peptide hydrogel (peptide)
peptide: Ac-VEVSVSVEV[dP]PTEVSVEVEV-NH2
SMILES: CC(=O)N[C@H](C(=O)N[C@@H](CCC(=O)O)C(=O)N[C@H](C(=O)N[C@@H](CO)C(=O)N[C@H](C(=O)N[C@@H](CO)C(=O)N[C@H](C(=O)N[C@@H](CCC(=O)O)C(=O)N[C@H](C(=O)N1CCC[C@@H]1C(=O)N1CCC[C@H]1C(=O)N[C@H](C(=O)N[C@@H](CCC(=O)O)C(=O)N[C@H](C(=O)N[C@@H](CO)C(=O)N[C@H](C(=O)N[C@@H](CCC(=O)O)C(=O)N[C@H](C(=O)N[C@@H](CCC(=O)O)C(=O)N[C@H](C(N)=O)C(C)C)C(C)C)C(C)C)C(C)C)[C@@H](C)O)C(C)C)C(C)C)C(C)C)C(C)C)C(C)C
  binding result: binds
